Changes are numbered by the printed parent chain.
What was measured:
[1] = molecular target: T1, bmCENP-T patch 2 mutant (Bombyx mori, UniProt A0A8R2HRP3 894-1016, R928S;R963S); test: EMSA; 100 mM NaCl; no effect of mutation; EMSA: 100 mM NaCl, 4 °C 30 min, 300 ng DNA, 8% glycerol, 5% native PAGE, GelRed stain; protein stock in 10 mM HEPES pH 7.5, 500 mM NaCl; binding buffer and pH not stated; conditions: protein: recombinant; tags: GST tag cleaved with HRV 3C; blunt
T1 sequence: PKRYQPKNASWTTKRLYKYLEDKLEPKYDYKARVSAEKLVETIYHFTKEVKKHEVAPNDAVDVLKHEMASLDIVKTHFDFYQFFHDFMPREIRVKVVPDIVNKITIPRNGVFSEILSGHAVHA

[2] = molecular target: T2, bmCENP-T patch 1 mutant (Bombyx mori, UniProt A0A8R2HRP3 894-1016, K895A;R896A;K907A;R908S;K911A); test: EMSA; 100 mM NaCl; EMSA: 100 mM NaCl, 4 °C 30 min, 300 ng DNA, 8% glycerol, 5% native PAGE, GelRed stain; protein stock in 10 mM HEPES pH 7.5, 500 mM NaCl; binding buffer and pH not stated; conditions: protein: recombinant; tags: GST tag cleaved with HRV 3C; blunt
T2 sequence: T1 sequence with K2A, R3A, K14A, R15S, K18A, S35R, S70R

[3] = molecular target: T3, bmCENP-T HFD WT (Bombyx mori, UniProt A0A8R2HRP3 894-1016); test: EMSA; 100 mM NaCl; maximum complex at 5x molar excess of protein; EMSA: 100 mM NaCl, 4 °C 30 min, 300 ng DNA, 8% glycerol, 5% native PAGE, GelRed stain; protein stock in 10 mM HEPES pH 7.5, 500 mM NaCl; binding buffer and pH not stated; conditions: protein: recombinant; tags: GST tag cleaved with HRV 3C (vector-derived N-terminal residues may remain); blunt
T3 sequence: T1 sequence with S35R, S70R

B1: 12 bp DNA (AA357/AA358) (dsDNA)
DNA 1: TAGACAGCTCTA
DNA 2: TAGAGCTGTCTA
binding result [1]: binds
binding result [2]: no binding
binding result [3]: binds

— publication PMC12678787, “Insects evolved a monomeric histone-fold domain in the CENP-T protein family”
